In patent US8729232:

How the values were obtained:
[1] = target: S. coelicolor sulfatase motif peptide … with Arg6 substituted by alanine
[2] = target: S. coelicolor sulfatase motif peptide … with Leu9 substituted by alanine
[3] = target: S. coelicolor sulfatase motif peptide … with Thr3 substituted by alanine
[4] = target: S. coelicolor sulfatase motif peptide … with Pro4 substituted by alanine

B1: Streptomyces coelicolor formylglycine generating enzyme (Strep FGE, SCO7548), recombinant (protein)
chain: AVAAPSPAAAAEPGPAARPRSTRGQVRLPGGEFAMGDAFGEGYPADGETPVHTVRLRPFHIDETAVTNARFAAFVKATGHVTDAERFGSSAVFHLVVAAPDADVLGSAAGAPWWINVRGAHWRRPEGARSDITGRPNHPVVHVSWNDATAYARWAGKRLPTEAEWEYAARGGLAGRRYAWGDELTPGGRWRCNIWQGRFPHVNTAEDGHLSTAPVKSYRPNGHGLWNTAGNVWEWCSDWFSPTYYAESPTVDPHGPGTGAARVLRGGSYLCHDSYCNRYRVAARSSNTPDSSSGNLGFRCANDADLTSGSAAE
conversion of cysteine to FGly relative to the wild-type sequence [1]: substitution of Thr3, Pro4, Arg6, or Leu9 with alanine completely abrogated activity | conversion of cysteine to FGly relative to the wild-type sequence [2]: substitution of Thr3, Pro4, Arg6, or Leu9 with alanine completely abrogated activity | conversion of cysteine to FGly relative to the wild-type sequence [3]: substitution of Thr3, Pro4, Arg6, or Leu9 with alanine completely abrogated activity | conversion of cysteine to FGly relative to the wild-type sequence [4]: substitution of Thr3, Pro4, Arg6, or Leu9 with alanine completely abrogated activity
